According to the supplement of paper PMC9170038:

Test system: MS2 coat protein
Experiment: apparent KD of MS2 coat protein; designed switch direction (-1 OFF switch, 1 ON switch): -1; higher = weaker reporter binding
In short: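 Normalised cluster fluorescence was curve-fitted, and each design's median over clusters is its apparent KD. Before this, SNAP-549-labelled MS2 coat protein was titrated from 0.7 or 1.5 nM, doubling to 3 µM, over RNA switches transcribed on Illumina chips by stalled E. coli RNA polymerase. Titrations had no input, 200 uM small-molecule ligand, or an oligonucleotide input, and steps lasted 0.8–1.5 h (lowest) to 10–20 min (highest).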

[1] = Eterna round: R95, input ligand: FMN 200 uM
[2] = Eterna round: R95, input ligand: microRNA oligo, concentration not stated
[3] = Eterna round: R95, input ligand: none
[4] = input ligand: microRNA oligo, concentration not stated

Row | Sequence | apparent KD of MS2 coat protein [1] | apparent KD of MS2 coat protein [2] | apparent KD of MS2 coat protein [3] | apparent KD of MS2 coat protein (input ligand: FMN 200 uM) | apparent KD of MS2 coat protein (input ligand: none) | apparent KD of MS2 coat protein [4]
1 | CUGAGGUAGCGGUCCUAUGACAUGAGGAUCACCCAUGUACCUUGCUUCGAGCUUUUUGCUCGUCUUAUGAUUCUCAG [Mat - Sensor v3 - turn-off var 1 - JL Mod - D32] (puzzle: Sensor v3, turn-off variant 1) | 114 nM | 405 nM | 162 nM |  |  | 
2 | CUGAGUAGUCAGGAUAUGUGGUACAAAAGUACUGCAGAAGGGAUUACAUGAGGAUCACCCAUGUUAUCUUCAUG [Omei Ex6 B19] (Eterna round: R97, puzzle: Exclusion 6) |  |  |  | 368 nM | 144 nM | 
3 | CUGAGUCUAGGAUAUACAUGAGGAUCACCCAUGUAAAGUAGCUUGCGUACAGGCAGAUGUAGAAGGAGAUUCGG [Mod of JL 10 - Jieux - Exclusion 3] (Eterna round: R97, puzzle: Exclusion 3) |  |  |  | 33.2 nM | 24.6 nM | 
4 | CUGAUGUCAGGAUAUCAGAAAAGGCACAAGAACGCGCCAAAUGAGAAGGGACAUGAGGAUCACCCAUGUAAAAC [Reena] (puzzle: Exclusion 4) | 87.1 nM | 28.2 nM | 27.9 nM |  |  | 
5 | CUGAUGUCAGGAUAUCAGAAAAGGUGCGAGGACGCACCAAAUGAGAAGGGACAUGAGGAUCACCCAUGUAAAAC [Inbeenen] (puzzle: Exclusion 4) |  | 19.2 nM |  |  |  | 
6 | CUGAUGUGAGGAUAUCGGGCUACGGCCAGGCCGCUAGCAUUCGAGAAGGCACAUGAGGAUCACCCAUGUGAGAA [Laquzara] (Eterna round: R96, puzzle: Exclusion 4) |  |  |  | 230 nM | 153 nM | 112 nM
7 | CUGAUGUGAGGAUAUCUAAAAGAAACUGGGCAAAAUACCAGAGAGAAGGCACAUGAGGAUCACCCAUGUAACGA [Rabigeri] (puzzle: Exclusion 4) |  | 19.5 nM |  |  |  | 
8 | CUGAUGUUAGGAUAUCAGGCACCCGCCACUGGCAGGGCGCAUGAGAAGGGACAUGAGGAUCACCCAUGUAGUAA [Gelaoren] (puzzle: Exclusion 4) |  | 21.3 nM |  |  |  | 
9 | CUGCUCCGUGUAGGAUAUGCGCGCACCACCCGCGCAGAAGGACAUGAGGAUCACCCAUGUAUGUUAUUAUCACGUGUGGCGCGC [Design 38] (Eterna round: R96, puzzle: Exclusion NG 1) |  |  |  | 12.6 nM | 15.9 nM | 11.1 nM
10 | CUGCUGGAGUUUCGCUUUGGUCGUACAUGAGGAUCACCCAUGUAGGAUAUGGUAAAAUUCGCCUGCUAGAAGGAUAGAGUGGUC [salish99_ExNG3_r04_620] (Eterna round: R96, puzzle: Exclusion NG 3) |  |  |  | 48.1 nM | 42.3 nM | 38.6 nM
11 | CUGCUGGAGUUUUGCUUUGGUCGUACAUGAGGAUCACCCAUGUAGGAUAUGGUAAAAUUCGCCUGCUAGAAGGAUAGAGUGGUC [salish99_ExNG3_r04_621] (Eterna round: R96, puzzle: Exclusion NG 3) |  |  |  | 35.5 nM | 32.4 nM | 23 nM
12 | CUGGGCCGAGGAUAUAUUAUGUGAAACAUGAGGAUCACCCAUGUAAUAUGAUGGAUGUAAAUAGAAGGCGGUCUAG [Mat - Exclusion 5 - JL mod - D27] (puzzle: Exclusion 5) | 28.2 nM | 17.4 nM | 21.3 nM |  |  | 
13 | CUGGUCCGAGGAUAUAUGAUGUGAAACAUGAGGAUCACCCAUGUAAUAUUAUGGAUGAAAAUAGAAGGCGGACUAG [Mat - Exclusion 5 - JL mod - D37] (puzzle: Exclusion 5) | 52.6 nM | 66.1 nM | 62.7 nM |  |  | 
14 | CUGGUCCGAGGAUAUAUUAUGUGAAACAUGAGGAUCACCCAUGUUAUAUGAUGGAUGUAAAUAGAAGGCGGACUAG [JL-ex5-3.14] (puzzle: Exclusion 5) | 27.6 nM | 36.3 nM | 40.3 nM |  |  | 
15 | CUGGUCCGAGGAUAUAUUAUGUGAUACAUGAGGAUCACCCAUGUUAUAUGAUGGAUGUUAGUAGAAGGCGGACUAC [salish99_ex5_r3_001] (puzzle: Exclusion 5) | 102 nM | 69.9 nM | 101 nM |  |  | 
16 | CUGGUGUGAGGAUAUCAGGACACGUAAGCGGGCGUGUCAAAUGAGAAGGCACAUGAGGAUCACCCAUGUGGGAC [Atbeceesxe] (puzzle: Exclusion 4) |  | 27.8 nM |  |  |  | 
17 | CUGUACAUAGGAUAUAGUUGCUUUUACAUGAGGAUCACCCAUGUCACUCCUCUCUCUCUUCUAGAAGGAUGUUUCU [JR_E5_Sub009] (puzzle: Exclusion 5) |  | 68.4 nM |  |  |  | 
18 | CUGUACAUAGGAUAUAGUUGUUUUUACAUGAGGAUCACCCAUGUUACUCCUCUCUCUCUUCUAGAAGGAUGUUUCU [JR_E5_Sub008] (puzzle: Exclusion 5) |  | 63.8 nM |  |  |  | 

Row | Sequence | apparent KD of MS2 coat protein [1] | apparent KD of MS2 coat protein [2] | apparent KD of MS2 coat protein [3] | apparent KD of MS2 coat protein (input ligand: FMN 200 uM) | apparent KD of MS2 coat protein (input ligand: none) | apparent KD of MS2 coat protein [4]
19 | CUGUACUGAGGAUAUACAUGAGGAUCACCCAUGUGCUCCAGCUAGGAAACUAGCAAAAGUAGAAGGCAGUACAG [Mat - Exclusion 3 - Eli Mod - D60] (Eterna round: R97, puzzle: Exclusion 3) |  |  |  | 620 nM | 62.5 nM | 
20 | CUGUGCACGCUGCGGUCCUACAUGAGGAUCACCCAUGUGGUCUGGUGGCGUGGGUCACCGGACUUGGCUCGUCUUGG [salish99_S_TOV1_R5_063] (Eterna round: R97, puzzle: Sensor, turn-off variant 1) |  |  |  | 22 nM | 23 nM | 
21 | CUGUUUUCCGCAGGAUAUGCUCCUCCAUUAUUAGCAGAAGGGCGUUGAACAUGAGGAUCACCCAUGUAUGUAAUUGAUUAUUGC [JR_ExcNG1_Sub071] (Eterna round: R96, puzzle: Exclusion NG 1) |  |  |  | 54.3 nM | 36.3 nM | 26.3 nM
22 | CUGUUUUCCGCAGGAUAUGCUCCUCCAUUAUUUGCAGAAGGGCGUUGAACAUGAGGAUCACCCAUGUAUGUAAUUGAUUAUUGC [JR_ExcNG1_Sub070] (Eterna round: R96, puzzle: Exclusion NG 1) |  |  |  | 27.7 nM | 33.8 nM | 27.5 nM
23 | CUUAAUUGUGACAUGGGUGACAUGAGGAUCACCCAUGUCACAAGCUUUUUGUUCGUCUUAUAAUUAACCCAUGUCAC [Stov1/13-B3] (Eterna round: R97, puzzle: Sensor, turn-off variant 1) |  |  |  | 44.9 nM | 52.7 nM | 
24 | CUUAGACAUGAGGAUCACCCAUGUGAGGAUAUGAUACAAUCAUACUAACAUAAUCACAUCAGAAGGCACAUAUG [Mat - Mod of JL D68] (puzzle: Exclusion 1) | 34.6 nM | 55.8 nM | 52.4 nM |  |  | 
25 | CUUAGACAUGAGGAUCACCCAUGUGAGGAUAUGAUGAGGAUAAGGAAGGAAGAAGGAAUCAGAAGGCACAUAUG [Mat - Mod of Hyphema D27] (puzzle: Exclusion 1) | 102 nM | 69.4 nM | 74.2 nM |  |  | 
26 | CUUAGACAUGAGGAUCACCCAUGUGAGGAUAUGAUGCGAAUAAGGAAGGAAGAAAGCAUCAGAAGGCACAUAUG [Mat - Mod of Hyphema D25] (puzzle: Exclusion 1) | 161 nM | 139 nM | 104 nM |  |  | 
27 | CUUCGACAUGAGGAUCACCCAUGUCAGGAUAUUGUGUAUCUGGUUUUUUACAGAUAGACAAGAAGGGAUGUGUU [LRO-Excl1-01] (puzzle: Exclusion 1) |  | 25.2 nM |  |  |  | 
28 | CUUGUCCGAGGAUAUAUUUUGUGAUACAUGAGGAUCACCCAUGUUAUAAGAUGGAUAUAAAUAGAAGGCGGACGAG [Mat - Exclusion 5 - JL mod - D69] (puzzle: Exclusion 5) | 35.7 nM | 44 nM | 47 nM |  |  | 
29 | CUUGUGUAAGGAUAUGCCUGGCCGUGAGGCCAGAUUGAAUAGCAGAAGGUACAUGAGGAUCACCCAUGUACGGG [jl-ex4-4.60 ViennaUCT mod] (Eterna round: R97, puzzle: Exclusion 4) |  |  |  | 256 nM | 376 nM | 
30 | CUUGUGUGAGGAUAUGAAUUGCCUGGACAUACAGGCUCCUGUCAGAAGGCACAUGAGGAUCACCCAUGUGGGCA [Andiriso] (Eterna round: R97, puzzle: Exclusion 4) |  |  |  | 98.1 nM | 411 nM | 
31 | CUUGUUUAUGUAGGAUAUGCCUGGCGUGCCUUUGCAGAAGGACAUGAGGAUCACCCAUGUAACAUGAGGCUUACCCUUGUCGCC [salish99_ExNG1_r04_119] (Eterna round: R96, puzzle: Exclusion NG 1) |  |  |  | 80.6 nM | 68.9 nM | 56.1 nM
32 | CUUGUUUAUGUAGGAUAUGCCUGGCGUGCCUUUGCAGAAGGACAUGAGGAUCACCCAUGUGGUAUGAGGCUUACCCUUGUCGCC [salish99_ExNG1_r04_121] (Eterna round: R96, puzzle: Exclusion NG 1) |  |  |  | 30.6 nM | 28.9 nM | 21.1 nM
33 | CUUUCGUCUGUGGGUGGUGACAUGAGGAUCACCCAUGUUUUGCUCGUCUUGUCCCGGGCCCGGCGCCCGGGCCCGGG [-38.7, -62.5, A 8%] (Eterna round: R97, puzzle: Sensor, turn-off variant 1) |  |  |  | 1210 nM | 1340 nM | 
34 | CUUUUGUGAGGAUAUCAGUAGUAAAAAAAUAAAAUUACUACUUAGAAGGCACAUGAGGAUCACCCAUGUUCCUC [salish99_ex4_r3_030] (puzzle: Exclusion 4) |  | 25.4 nM |  |  |  | 
35 | CUUUUGUGAGGAUAUCAGUAGUAAAAAAAUAAUAUUACUACUGAGAAGGCACAUGAGGAUCACCCAUGUUCCUC [salish99_ex4_r3_024] (puzzle: Exclusion 4) |  | 38.4 nM |  |  |  | 
